In the RNAGym collection of RNA variant scans (doi:10.7554/elife.80360):

B1: HDV Ribozyme (parent)
chain: GGCCGGCAUGGUCCCAGCCUCCUCGCUGGCGCCGGCUGGGCAACAUUCCGAGGGGACCGUCCCCUCGGUAAUGGCGAAUGGGACCCA

Variants of: B1
Test: self-cleavage, relative activity (ratio to wild type); higher = more cleavage; co-transcriptional

| Variant | self-cleavage |
| --- | --- |
| GGCCGGCAUAGUCCCAGCCUCCUCGCUGGCGCCGGCUGGGCAACAUUCCGAGGGGACCGUCCCCUCGGUAAUGGCGAAUGGGACGCA [G10A C85G] | 0.892 |
| GGCCGGCAUAGUCUCAGCCUCCUCGCUGGCGCCGGCUGGGCAACAUUCCGAGGGGACCGUCCCCUCGGUAAUGGCGAAUGGGACCCA [G10A C14U] | 0.59 |
| GGCCGGCAUAGUCCCAGCCUCAUCGCUGGCGCCGGCUGGGCAACAUUCCGAGGGGACCGUCCCCUCGGUAAUGGCGAAUGGGACCCA [G10A C22A] | 0.0528 |
| GGCCGGCAUAGUCCCAGCCUCUUCGCUGGCGCCGGCUGGGCAACAUUCCGAGGGGACCGUCCCCUCGGUAAUGGCGAAUGGGACCCA [G10A C22U] | 0.157 |
| GGCCGGCAUAGUCCCAGCCUCGUCGCUGGCGCCGGCUGGGCAACAUUCCGAGGGGACCGUCCCCUCGGUAAUGGCGAAUGGGACCCA [G10A C22G] | 0.0171 |
| GGCCGGCAUAGUCCCAGCCUCCUCGCUGGCGCCGGUUGGGCAACAUUCCGAGGGGACCGUCCCCUCGGUAAUGGCGAAUGGGACCCA [G10A C36U] | 0.396 |
| GGCCGGCAUAGUCCCAGCCUCCUCGCUGGCGCCGGAUGGGCAACAUUCCGAGGGGACCGUCCCCUCGGUAAUGGCGAAUGGGACCCA [G10A C36A] | 0.0687 |
| GGCCGGCAUAGUCCCAGCCUCCUCGCUUGCGCCGGCUGGGCAACAUUCCGAGGGGACCGUCCCCUCGGUAAUGGCGAAUGGGACCCA [G10A G28U] | 0.0848 |
| GGCCGGCAUAGUCCCAGCCUCCUCGCUCGCGCCGGCUGGGCAACAUUCCGAGGGGACCGUCCCCUCGGUAAUGGCGAAUGGGACCCA [G10A G28C] | 0.0683 |
| GGCCGGCAUAGUCCCAGCCUCCUCGCUAGCGCCGGCUGGGCAACAUUCCGAGGGGACCGUCCCCUCGGUAAUGGCGAAUGGGACCCA [G10A G28A] | 0.0336 |
| GGCCGGCAUAGUCCCAGCCUCCUCGCUGGCGCCGGCUGUGCAACAUUCCGAGGGGACCGUCCCCUCGGUAAUGGCGAAUGGGACCCA [G10A G39U] | 0.293 |
| GGCCGGCAUAGUCCCAGCCUCCUCGCUGGCGCCGGCUGGGCAACAUUCUGAGGGGACCGUCCCCUCGGUAAUGGCGAAUGGGACCCA [G10A C49U] | 0.831 |
| GGCCGGCAUAGUCCCAGCCUCCUCGCUGGCGCCGGCUGGGCAACAUUCAGAGGGGACCGUCCCCUCGGUAAUGGCGAAUGGGACCCA [G10A C49A] | 0.665 |
| GGCCGGCAUACUCCCAGCCUCCUCGCUGGCGCCGGCUGGGCAACAUUCCGAGGGGACCGUCCCCUCGGUAAUGGCGAAUGGGACCCA [G10A G11C] | 0.256 |
| GGCCGGCAUAUUCCCAGCCUCCUCGCUGGCGCCGGCUGGGCAACAUUCCGAGGGGACCGUCCCCUCGGUAAUGGCGAAUGGGACCCA [G10A G11U] | 0.095 |
| GGCCGGCAUAGUCCCAGCCUCCUCGCUGGCGCCGGCUGGGUAACAUUCCGAGGGGACCGUCCCCUCGGUAAUGGCGAAUGGGACCCA [G10A C41U] | 0.607 |
| GGCCGGCAUAGUCCCAGCCUCCUCGCUGGCGCCGGCUGGGGAACAUUCCGAGGGGACCGUCCCCUCGGUAAUGGCGAAUGGGACCCA [G10A C41G] | 0.68 |
| GGCCGGCAUAGUCCCAGCAUCCUCGCUGGCGCCGGCUGGGCAACAUUCCGAGGGGACCGUCCCCUCGGUAAUGGCGAAUGGGACCCA [G10A C19A] | 0.0489 |
| GGCCGGCAUAGUCCCAGCGUCCUCGCUGGCGCCGGCUGGGCAACAUUCCGAGGGGACCGUCCCCUCGGUAAUGGCGAAUGGGACCCA [G10A C19G] | 0.111 |
| GGCCGGCAUAGUCCCAGCCUCCUCGCUGGCGCCGGCUGGGCAACAUUGCGAGGGGACCGUCCCCUCGGUAAUGGCGAAUGGGACCCA [G10A C48G] | 0.671 |
| GGCCGGCAUAGUCCCAGCCUCCUCGCUGGCGCCGGCUGGGCAACAUUACGAGGGGACCGUCCCCUCGGUAAUGGCGAAUGGGACCCA [G10A C48A] | 0.739 |
| GGCCGGCAUAGUCCCAGCCUCCUCGCUGGCGCCGGCUGGGCAACAUUCCGACGGGACCGUCCCCUCGGUAAUGGCGAAUGGGACCCA [G10A G52C] | 0.812 |

| Variant | self-cleavage |
| --- | --- |
| GGCCGGCAUAGUCCCAGCCUCCUCGCUGGCGCCGGCUGGGCAACAUUCCGAUGGGACCGUCCCCUCGGUAAUGGCGAAUGGGACCCA [G10A G52U] | 0.838 |
| GGCCGGCAUAGUCCCAGCCUCCUCUCUGGCGCCGGCUGGGCAACAUUCCGAGGGGACCGUCCCCUCGGUAAUGGCGAAUGGGACCCA [G10A G25U] | 0.0678 |
| GGCCGGCAUAGUCCCAGCCUCCUCGCUGGCGCCGGCUGGGCAACAUUCCGAGCGGACCGUCCCCUCGGUAAUGGCGAAUGGGACCCA [G10A G53C] | 0.742 |
| GGCCGGCAUAGUCCCAGCCUCCUCGCUGGCGCCGGCUGGGCAACAUUCCGAGAGGACCGUCCCCUCGGUAAUGGCGAAUGGGACCCA [G10A G53A] | 0.841 |
| GGCCGGCAUAGUCCCAGCCUCCUCGCUGGCGCCGGCUGGGCAACAUUCCGAGGGGACCGUCCCUUCGGUAAUGGCGAAUGGGACCCA [G10A C64U] | 0.661 |
| GGCCGGCAUAGUCCCAGCCUCCUCGCUGGCGCCGGCUGGGCAACAUUCCGAGGGGACCGUCCCCUCGGUAAUGGCGAAUGGGACCAA [G10A C86A] | 0.82 |
| GGCCGGCAUAGUCCCAGCCUCCUCGCUGGCGCCGGCUGGGCAACAUUCCGAGGGGACCGUCCCCUCGGUAAUGGCGAAUGGGACCGA [G10A C86G] | 0.639 |
| GGCCGGCAUAGUCCCAGCCUGCUCGCUGGCGCCGGCUGGGCAACAUUCCGAGGGGACCGUCCCCUCGGUAAUGGCGAAUGGGACCCA [G10A C21G] | 0.126 |
| GGCCGGCAUAGUCCCAGCCUUCUCGCUGGCGCCGGCUGGGCAACAUUCCGAGGGGACCGUCCCCUCGGUAAUGGCGAAUGGGACCCA [G10A C21U] | 0.0453 |
| GGCCGGCAUAGUCCCAGCCUACUCGCUGGCGCCGGCUGGGCAACAUUCCGAGGGGACCGUCCCCUCGGUAAUGGCGAAUGGGACCCA [G10A C21A] | 0 |
| GGCCGGCAUAGUCCCAGCCUCCUCGCUGGCGACGGCUGGGCAACAUUCCGAGGGGACCGUCCCCUCGGUAAUGGCGAAUGGGACCCA [G10A C32A] | 0.153 |
| GGCCGGCAUAGUCCCAGCCUCCUCGCUGGCGGCGGCUGGGCAACAUUCCGAGGGGACCGUCCCCUCGGUAAUGGCGAAUGGGACCCA [G10A C32G] | 0.0966 |
| GGCCGGCAUAGUCCCAGCCUCCUCGCUGGCGUCGGCUGGGCAACAUUCCGAGGGGACCGUCCCCUCGGUAAUGGCGAAUGGGACCCA [G10A C32U] | 0.652 |
| GGCCGGCAUAGUCCCAGCCUCCUCGCUGGCGCCGGCUGGGCAACAUUCCGAGGGGACCGUCUCCUCGGUAAUGGCGAAUGGGACCCA [G10A C62U] | 0.898 |
| GGCCGGCAUAGUCCCAGCCUCCUCGCUGGCGCCGGCUGGGCAACAUUCCGAGGGGACCGUCACCUCGGUAAUGGCGAAUGGGACCCA [G10A C62A] | 0.673 |
| GGCCGGCAUAGUCCCAGCCUCCUCGCUGGCGCCGGCUGGCCAACAUUCCGAGGGGACCGUCCCCUCGGUAAUGGCGAAUGGGACCCA [G10A G40C] | 0.302 |
| GGCCGGCAUAGUCCCAGCCUCCUCGCUGGCGCCGGCUGGGCAACAUUCCGAGGGGACCGUCCCCUUGGUAAUGGCGAAUGGGACCCA [G10A C66U] | 0.853 |
| GGCCGGCAUAGUCCCAGCCUCCUCGCUGGCGCCGGCUGGGCAACAUUCCGAGGGGACCGUCCCCUAGGUAAUGGCGAAUGGGACCCA [G10A C66A] | 0.82 |
| GGCCGGCAUAGUCCCAGCCUCCUAGCUGGCGCCGGCUGGGCAACAUUCCGAGGGGACCGUCCCCUCGGUAAUGGCGAAUGGGACCCA [G10A C24A] | 0.367 |
| GGCCGGCAUAGUCCCAGCCUCCUCGCUGGCGCCGGCUAGGCAACAUUCCGAGGGGACCGUCCCCUCGGUAAUGGCGAAUGGGACCCA [G10A G38A] | 0.0607 |
| GGCCGGCAUAGUCCCAGCCUCCUCGCUGGCGCCGGCUCGGCAACAUUCCGAGGGGACCGUCCCCUCGGUAAUGGCGAAUGGGACCCA [G10A G38C] | 0.0692 |
| GGCCGGCAUAGUCCGAGCCUCCUCGCUGGCGCCGGCUGGGCAACAUUCCGAGGGGACCGUCCCCUCGGUAAUGGCGAAUGGGACCCA [G10A C15G] | 0.166 |

| Variant | self-cleavage |
| --- | --- |
| GGCCGGCAUAGUCCCAGCCUCCUCGCUGGCGCCGGCUGGGCAACAUUCCGAGGGGACCGUCCCCUCGGUAAUGGCGAAUGGGAUCCA [G10A C84U] | 0.54 |
| GGCCGGCAUAGUCCCAGCCUCCUCGCUGGAGCCGGCUGGGCAACAUUCCGAGGGGACCGUCCCCUCGGUAAUGGCGAAUGGGACCCA [G10A C30A] | 0.0913 |
| GGCCGGCAUAGUCCCAGCCUCCUCGCUGGUGCCGGCUGGGCAACAUUCCGAGGGGACCGUCCCCUCGGUAAUGGCGAAUGGGACCCA [G10A C30U] | 0.248 |
| GGCCGGCAUAGUCCCAGCCUCCUCGCUGGCUCCGGCUGGGCAACAUUCCGAGGGGACCGUCCCCUCGGUAAUGGCGAAUGGGACCCA [G10A G31U] | 0.226 |
| GGCCGGCAUAGUCCCAGCCUCCUCGCUGGCCCCGGCUGGGCAACAUUCCGAGGGGACCGUCCCCUCGGUAAUGGCGAAUGGGACCCA [G10A G31C] | 0.198 |
| GGCCGGCAUAGUCCCAGCCUCCUCGCUGGCGCCGGCUGGGCAACAUUCCUAGGGGACCGUCCCCUCGGUAAUGGCGAAUGGGACCCA [G10A G50U] | 0.67 |
| GGCCGGCAUAGUCCCAGCCUCCUCGCUGGCGCCGGCUGGGCAACAUUCCGAGGGGACCGUGCCCUCGGUAAUGGCGAAUGGGACCCA [G10A C61G] | 0.844 |
| GGCCGGCAUAGUCCCAGCCUCCUCGCUGGCGCCGGCUGGGCAACAUUCCGAGGGGACCGUACCCUCGGUAAUGGCGAAUGGGACCCA [G10A C61A] | 0.674 |
| GGCCGGCAUAGUCCCAUCCUCCUCGCUGGCGCCGGCUGGGCAACAUUCCGAGGGGACCGUCCCCUCGGUAAUGGCGAAUGGGACCCA [G10A G17U] | 0.525 |
| GGCCGGCAUAGUCCCACCCUCCUCGCUGGCGCCGGCUGGGCAACAUUCCGAGGGGACCGUCCCCUCGGUAAUGGCGAAUGGGACCCA [G10A G17C] | 0.341 |
| GGCCGGCAUAGUCCCAGCCUCCUCGCUGGCGCCGGCUGGGCAACAUUCCGAGGGGACCGUCCGCUCGGUAAUGGCGAAUGGGACCCA [G10A C63G] | 0.566 |
| GGCCGGCAUAGUCCCAGCCUCCUCGCUGGCGCCGGCUGGGCAACAUUCCGAGGGGACGGUCCCCUCGGUAAUGGCGAAUGGGACCCA [G10A C58G] | 0.939 |
| GGCCGGCAUAGUGCCAGCCUCCUCGCUGGCGCCGGCUGGGCAACAUUCCGAGGGGACCGUCCCCUCGGUAAUGGCGAAUGGGACCCA [G10A C13G] | 0.104 |
| GGCCGGCAUAGUCCCAGCCUCCUCGCUGGCGCGGGCUGGGCAACAUUCCGAGGGGACCGUCCCCUCGGUAAUGGCGAAUGGGACCCA [G10A C33G] | 0.0767 |
| GGCCGGCAUAGUCCCAGCCUCCUCGCUGGCGCUGGCUGGGCAACAUUCCGAGGGGACCGUCCCCUCGGUAAUGGCGAAUGGGACCCA [G10A C33U] | 0.554 |
| GGCCGGCAUAGUCCCAGCCUCCUCGCUGGCGCAGGCUGGGCAACAUUCCGAGGGGACCGUCCCCUCGGUAAUGGCGAAUGGGACCCA [G10A C33A] | 0.111 |
| GGCCGGCAUAGUCCCAGCCUCCUCGUUGGCGCCGGCUGGGCAACAUUCCGAGGGGACCGUCCCCUCGGUAAUGGCGAAUGGGACCCA [G10A C26U] | 0.874 |
| GGCCGGCAUAGUCCCAGCCUCCUCGCUGGCGCCGCCUGGGCAACAUUCCGAGGGGACCGUCCCCUCGGUAAUGGCGAAUGGGACCCA [G10A G35C] | 0.1 |
| GGCCGGCAUAGUCCCAGCCUCCUCGCUGGCGCCGACUGGGCAACAUUCCGAGGGGACCGUCCCCUCGGUAAUGGCGAAUGGGACCCA [G10A G35A] | 0.281 |
| GGCCGGCAUAGUCCCAGCCUCCUCGCUGGCGCCGUCUGGGCAACAUUCCGAGGGGACCGUCCCCUCGGUAAUGGCGAAUGGGACCCA [G10A G35U] | 0.499 |
